Series [1] deals with T1, GST-ONAC022 (Oryza sativa (rice), UniProt Q10S65 1-316).
T1 sequence: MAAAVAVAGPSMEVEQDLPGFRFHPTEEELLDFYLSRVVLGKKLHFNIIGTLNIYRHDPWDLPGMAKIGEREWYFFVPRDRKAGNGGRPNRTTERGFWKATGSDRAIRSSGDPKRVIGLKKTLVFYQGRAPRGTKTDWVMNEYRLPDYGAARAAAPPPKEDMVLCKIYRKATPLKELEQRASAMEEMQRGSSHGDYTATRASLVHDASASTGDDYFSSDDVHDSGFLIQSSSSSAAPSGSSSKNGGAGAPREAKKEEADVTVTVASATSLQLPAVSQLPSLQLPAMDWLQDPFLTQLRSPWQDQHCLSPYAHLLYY
Put plainly: EMSA; self-competition by 200x unlabeled wNACRS attenuates the shift; 10 uL with 5x EMSA buffer (Beyotime chemiluminescent EMSA kit), 2 ug protein, 1 uL biotin probe; competitor preincubated 20 min; 8% native PAGE; salt, pH and temperature not stated. The conditions noted are these: protein: recombinant; tags: N-terminal GST (pGEX-6p-1); chain copies: 2; blunt.

Series [2] deals with T1, GST-ONAC022. The experiment in a line: EMSA; 10 uL with 5x EMSA buffer (Beyotime chemiluminescent EMSA kit), 2 ug protein, 1 uL biotin probe; competitor preincubated 20 min; 8% native PAGE; salt, pH and temperature not stated. The conditions noted are these: protein: recombinant; tags: N-terminal GST (pGEX-6p-1); chain copies: 2; blunt.

Experimental findings from publication PMC4722120, “Overexpression of a Stress-Responsive NAC Transcription Factor Gene ONAC022 Improves Drought and Salt Tolerance in Rice” are described below.

B1: wNACRS (dsDNA)
DNA 1: ATCGCATGTGGAGCACGGAGCACGTTTT
DNA 2: AAAACGTGCTCCGTGCTCCACATGCGAT
In the case of B1, the binding result with GST-ONAC022 [1] is given as “binds”.

B2: mNACRS (dsDNA)
DNA 1: ATCGAAAAAAGAGAAAAGAGAAAATTTT
DNA 2: AAAATTTTCTCTTTTCTCTTTTTTCGAT
Regarding B2, the binding result with GST-ONAC022 [2] is reported as “no binding”.
